US20190241648A1 (STATEN BIOTECHNOLOGY B V, published 2019)

Molecular target: T1, human ApoC3 (huApoC3), native protein purified from human serum (human, UniProt P02656 21-99)
T1 construct: Athens Research and Technology; randomly biotinylated in some assays; also called Apolipoprotein C3
Test: ELISA, biotinylated huApoC3 captured on neutravidin, scFv periplasmic extract
Procedure: The antibody clones selected from the scFv phage display library constructed in Example 1 were analyzed by a ELISA assay with biotinylated ApoC3 captured by […] which was coated on plates. Neutravidin (Fisher Scientific LDAcat#: W9995L) diluted in PBS (pH 7.4) at a concentration of 2-5 μg/ml (100 μl/well) was incubated in Microtiter Immunoassay Maxisorp 96-well plates (NUNC cat#:1456537 or similar) at 4° C. overnight. The coated plates were washed three times with 250 μl/well PBS-T to remove the excess of the unbound neutravidin. After washing, 250 μl 1% (m/v) of casein solution prepared in PBS was added to each coated well for blocking, and the plates were incubated for 1 to 2 hours at room temperature on a plate shaker (TitraMax 1000, Heidolph or similar). After blocking, the plates were washed three times to remove the excess of the blocking solution with 250 μl/well PBS-T. Biotin groups were introduced at random sites of human native ApoC3 protein (Athens Research and Technology). […] The absorbance of the end-product is measured at 450 nm using a Microplate spectrophotometer.

T1 sequence (P02656 21-99): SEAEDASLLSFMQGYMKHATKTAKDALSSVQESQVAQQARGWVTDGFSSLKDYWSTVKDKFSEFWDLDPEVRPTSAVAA

binding result | Binder
binds | 12D7 scFv (scFv, V domains shown, scFv (crude periplasmic extract) with C-terminal c-myc tag) VH: ELQLVESGGDLVQPGGSLRLSCAASGFTFDDYAMSWVRQAPGKGLEWVSAITSNGKRTDYAESMKGRFTISRDNSKNTLYLEMNSLKSEDTAVYYCTKGPPHYIPIPSMTPRDSWGQGTQVTVSS VL: SSALTQPSAVSVSLGQTARITCQGGTLGRYYGSWYQQKPAQAPVLLIYGDNSRPSGIPERFSGSKSGDTATLTISGTQAEDEADYYCESFDFSGNAAVFGGGTHLTVL
binds | 12G8 scFv (scFv, V domains shown, scFv (crude periplasmic extract) with C-terminal c-myc tag) VH: QLQLVESGGGLVQPGGSLRLSCAASGFTFDDYAMSWVRQAPGKGLEWVSAIRWNGDTYYAESMKGRFDMSRDNAKNTLYLQMNSLKSEDTAVYYCAKHRPGGALDTWGQGTLVTVSS VL: QAVLTQPSAVSVSLGQTARITCQGGNFGNFYASWYQQKPGQAPVLVIYKDSERPSGIPERFSGSSSGDTATLTISGAQAEDEADYYCQSGSSSDNVVFGGGTHLTVL
